Source: PMC11115209

Experiments:
His6-TBC1D15 [1] = molecular target: His6-TBC1D15 (UniProt Q8TC07); test: HA beads pulldown, immunoblot band quantification; settings: read off a plot
His6-TBC1D15 [2] = molecular target: His6-TBC1D15 (UniProt Q8TC07); test: immunoprecipitation with Flag beads, immunoblot band quantification; settings: HA-SUMO2 co-expressed, read off a plot, scale: relative band intensity
[3] = + SulF (GST-SulF), parent: est. 0.16

UniProt Q8TC07, sequence (Q8TC07 whole entry, looked up): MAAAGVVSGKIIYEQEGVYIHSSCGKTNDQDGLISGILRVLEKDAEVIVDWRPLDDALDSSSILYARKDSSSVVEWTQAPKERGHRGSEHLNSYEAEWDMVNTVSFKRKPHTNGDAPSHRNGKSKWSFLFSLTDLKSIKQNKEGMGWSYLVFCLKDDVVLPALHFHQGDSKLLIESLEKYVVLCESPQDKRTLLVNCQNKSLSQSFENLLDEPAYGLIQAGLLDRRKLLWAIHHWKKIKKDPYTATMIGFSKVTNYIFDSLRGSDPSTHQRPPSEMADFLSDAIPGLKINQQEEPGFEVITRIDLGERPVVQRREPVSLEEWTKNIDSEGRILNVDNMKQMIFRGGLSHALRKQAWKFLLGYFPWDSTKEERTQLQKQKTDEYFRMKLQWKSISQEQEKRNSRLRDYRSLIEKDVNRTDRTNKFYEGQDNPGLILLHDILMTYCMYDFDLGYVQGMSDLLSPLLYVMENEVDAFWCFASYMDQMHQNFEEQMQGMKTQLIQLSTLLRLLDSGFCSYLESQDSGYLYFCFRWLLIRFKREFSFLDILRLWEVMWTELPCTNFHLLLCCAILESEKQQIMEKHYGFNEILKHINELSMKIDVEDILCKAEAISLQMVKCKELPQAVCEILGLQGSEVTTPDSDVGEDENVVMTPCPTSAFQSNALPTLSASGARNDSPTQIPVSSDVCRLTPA

Row | Substance | response (relative ratio) (His6-TBC1D15 [1]; Buffer added after 1 h incubation) | response (relative ratio) (His6-TBC1D15 [1]; GST added after 1 h incubation) | response (relative ratio) (His6-TBC1D15 [1]; GST-SulF added after 1 h incubation (competition)) | response (relative ratio) (His6-TBC1D15 [1]; GST-SulFIV/AA added after 1 h incubation (competition)) | response (His6-TBC1D15 [2]; + GST, parent: est. 0.25) | response (His6-TBC1D15 [2]; [3])
1 | Flag-Rab7 WT (Rab7 part of m4) Q67L | 1 | 1.1 | 0.34 | 1.1 | 0.88 | 0.48
2 | Flag-Rab7 WT (Rab7 part of m4) Q67L; K175R |  |  |  |  | 1 | 1.1
3 | Flag-Rab7 WT (Rab7 part of m4) T22N |  |  |  |  | 0.57 | 0.31
